The values that follow come from PMC6547438, “Bacillus subtilis DisA regulates RecA-mediated DNA strand exchange” (Nucleic Acids Research, 2019).

The labels stand for the following.
B1: His-tagged DisA (enzyme, Bacillus subtilis, UniProt P37573 1-360, looked up)
chain: MEKEKKGAKHELDLSSILQFVAPGTPLRAGMENVLRANTGGLIVVGYNDKVKEVVDGGFHINTAFSPAHLYELAKMDGAIILSDSGQKILYANTQLMPDATISSSETGMRHRTAERVAKQTGCLVIAISERRNVITLYQENMKYTLKDIGFILTKANQAIQTLEKYKTILDKTINALNALEFEELVTFSDVLSVMHRYEMVLRIKNEINMYIKELGTEGHLIKLQVIELITDMEEEAALFIKDYVKEKIKDPFVLLKELQDMSSYDLLDDSIVYKLLGYPASTNLDDYVLPRGYRLLNKIPRLPMPIVENVVEAFGVLPRIIEASAEELDEVEGIGEVRAQKIKKGLKRLQEKHYLDRQL
B2: RecA (native, untagged) (enzyme, Bacillus subtilis, UniProt P16971 1-348, looked up)
chain: MSDRQAALDMALKQIEKQFGKGSIMKLGEKTDTRISTVPSGSLALDTALGIGGYPRGRIIEVYGPESSGKTTVALHAIAEVQQQGGQAAFIDAEHALDPVYAQKLGVNIEELLLSQPDTGEQALEIAEALVRSGAVDIVVVDSVAALVPKAEIEGDMGDSHVGLQARLMSQALRKLSGAINKSKTIAIFINQIREKVGVMFGNPETTPGGRALKFYSSVRLEVRRAEQLKQGNDVMGNKTKIKVVKNKVAPPFRTAEVDIMYGEGISKEGEIIDLGTELDIVQKSGSWYSYEEERLGQGRENAKQFLKENKDIMLMIQEQIREHYGLDNNGVVQQQAEETQEELEFEE
notes: Bacillus subtilis recombinase RecA; purified protein of 38.0 kDa; The printed mass of 38.0 kDa fits the whole protein; also called native RecA; apo RecA; source: B. subtilis BG214 bearing pBT61-borne recA, over-expressed and purified

The experiment “RecA (native, untagged)” concerns the target B2. Nature of the experiment: cell-based or functional assay.
The target in the experiment “His-tagged DisA” is B1. The experiment in a line: pull-down; His-tagged DisA and native RecA (1.5 μg each) loaded on a 50-μl Ni2+ microcolumn, room temperature, Buffer A (50 mM Tris-HCl pH 7.5, 50 mM NaCl, 10 mM MgCl2, 5% glycerol) with 20 mM imidazole, without ssDNA and ATP; eluted with 1 M NaCl and 400 mM imidazole; SDS-PAGE, Coomassie and Western blot. The settings on record: both partners purified.

On to B1, for which the “RecA-mediated three-strand DNA exchange with SsbA and RecO in ATPγS, fold reduction at a DisA:RecA molar ratio of 1:48” value with RecA (native, untagged) is about 18 fold. B2: in the experiment with His-tagged DisA, the binding result is recorded as “binds”.
